pKd: −log10 of the molar value.
Legend:
HLA-B*07:02 = assay: IEDB peptide-MHC binding, purified MHC/direct/fluorescence; filed as Kd, often an IC50 or EC50 that approximates it; ≥ and ≤ were set here for values at or beyond the usual limits of such assays
HLA-B*51:01 [1] = assay: as above; conditions: source organism: Orthohantavirus hantanense
HLA-A*01:01 = assay: as above
HLA-A*02:01 = assay: as above
HLA-A*02:12 = assay: as above; conditions: source organism: Orthohantavirus andesense
HLA-A*03:01 = assay: as above
HLA-A*11:01 = assay: as above
HLA-A*29:02 = assay: as above; conditions: source organism: Orthohantavirus andesense
HLA-A*31:01 = assay: as above
HLA-A*68:02 = assay: as above; conditions: source organism: Orthohantavirus andesense
HLA-A*69:01 = assay: as above
HLA-B*15:01 = assay: as above
HLA-B*18:01 = assay: as above; conditions: source organism: Orthohantavirus andesense
HLA-B*27:05 = assay: as above
HLA-B*39:01 = assay: as above
HLA-B*40:01 = assay: as above
HLA-B*44:02 = assay: as above
HLA-B*46:01 = assay: as above
HLA-B*48:01 = assay: as above
HLA-B*57:01 = assay: as above
HLA-B*58:01 = assay: as above
HLA-A*26:01 [2] = assay: IEDB peptide-MHC binding, purified MHC/competitive/fluorescence; filed as Kd, often an IC50 or EC50 that approximates it; ≥ and ≤ were set here for values at or beyond the usual limits of such assays; conditions: source organism: Orthohantavirus andesense
HLA-B*15:17 = assay: as above; conditions: source organism: Orthohantavirus andesense
HLA-B*27:03 = assay: as above; conditions: source organism: Orthohantavirus andesense
HLA-B*51:01 [3] = assay: as above; conditions: source organism: Orthohantavirus andesense
HLA-C*15:02 = assay: IEDB peptide-MHC binding, purified MHC/direct/fluorescence; filed as Kd, often an IC50 or EC50 that approximates it; ≥ and ≤ were set here for values at or beyond the usual limits of such assays; conditions: source organism: Mycobacterium tuberculosis C
HLA-A*26:01 [4] = assay: as above; conditions: source organism: Brucella abortus
HLA-B*08:01 = assay: as above; conditions: source organism: Brucella melitensis
[5] = source organism: Orthohantavirus andesense
[6] = source organism: Mammarenavirus machupoense
[7] = source organism: Brucella abortus
[8] = source organism: Brucella melitensis

## AVRTDGSNI
HLA-B*07:02; source organism: Orthohantavirus hantanense
  pKd: 6.58
HLA-B*51:01 [1]
  pKd: ≤ 4.70

## AYDHGNVIL
HLA-A*01:01; [5]
  pKd: ≤ 4.70
HLA-A*02:01; [5]
  pKd: ≤ 4.70
HLA-A*02:12
  pKd: ≤ 4.70
HLA-A*03:01; [5]
  pKd: ≤ 4.70
HLA-A*11:01; [5]
  pKd: ≤ 4.70
HLA-A*29:02
  pKd: ≤ 4.70
HLA-A*31:01; [5]
  pKd: ≤ 4.70
HLA-A*68:02
  pKd: ≤ 4.70
HLA-A*69:01; [5]
  pKd: ≤ 4.70
HLA-B*07:02; [5]
  pKd: ≤ 4.70
HLA-B*15:01; [5]
  pKd: ≤ 4.70
HLA-B*18:01
  pKd: ≤ 4.70
HLA-B*27:05; [5]
  pKd: ≤ 4.70
HLA-B*39:01; [5]
  pKd: 7.18
HLA-B*40:01; [5]
  pKd: ≤ 4.70
HLA-B*44:02; [5]
  pKd: ≤ 4.70
HLA-B*46:01; [5]
  pKd: ≤ 4.70
HLA-B*48:01; [5]
  pKd: ≤ 4.70
HLA-B*57:01; [5]
  pKd: ≤ 4.70
HLA-B*58:01; [5]
  pKd: ≤ 4.70
HLA-A*26:01 [2]
  pKd: ≤ 4.70
HLA-B*15:17
  pKd: ≤ 4.70
HLA-B*27:03
  pKd: ≤ 4.70
HLA-B*51:01 [3]
  pKd: ≤ 4.70

## FHEFLSSKL
HLA-A*01:01; [6]
  pKd: ≤ 4.70
HLA-A*02:01; [6]
  pKd: ≤ 4.70
HLA-A*03:01; [6]
  pKd: ≤ 4.70
HLA-A*11:01; [6]
  pKd: ≤ 4.70
HLA-A*31:01; [6]
  pKd: ≤ 4.70
HLA-B*07:02; [6]
  pKd: ≤ 4.70
HLA-B*15:01; [6]
  pKd: ≤ 4.70
HLA-B*27:05; [6]
  pKd: ≤ 4.70
HLA-B*39:01; [6]
  pKd: 7.14
HLA-B*44:02; [6]
  pKd: ≤ 4.70
HLA-B*46:01; [6]
  pKd: ≤ 4.70
HLA-B*48:01; [6]
  pKd: ≤ 4.70
HLA-B*57:01; [6]
  pKd: ≤ 4.70
HLA-B*58:01; [6]
  pKd: ≤ 4.70

## GLYEFTILV
HLA-C*15:02
  pKd: ≤ 4.70

## GRDHVRVTL
HLA-A*01:01; [7]
  pKd: ≤ 4.70
HLA-A*02:01; [7]
  pKd: ≤ 4.70
HLA-A*03:01; [7]
  pKd: ≤ 4.70
HLA-A*11:01; [7]
  pKd: ≤ 4.70
HLA-A*26:01 [4]
  pKd: ≤ 4.70
HLA-A*31:01; [7]
  pKd: ≤ 4.70
HLA-A*69:01; [7]
  pKd: ≤ 4.70
HLA-B*07:02; [7]
  pKd: ≤ 4.70
HLA-B*08:01
  pKd: 5.59
HLA-B*15:01; [7]
  pKd: ≤ 4.70
HLA-B*27:05; [8]
  pKd: 6.50
HLA-B*39:01; source organism: Brucella suis 1330
  pKd: 7.28
HLA-B*40:01; [8]
  pKd: ≤ 5.30
HLA-B*44:02; [7]
  pKd: ≤ 4.70
HLA-B*58:01; [7]
  pKd: ≤ 4.70
